Test results as given in patent publication US20110262446A1.

Columns and labels:
[1] = target: IGF-IIE (amino acids 1-104) (human) (UniProt P01344); assay: SPR (Biacore T100): IgG captured on Protein G', ligand bound, then BP injected; competitor BP4
[2] = target: IGF-IIE (amino acids 1-104) (human) (UniProt P01344); assay: cell-based or functional assay
[3] = target: IGF-IIE (amino acids 1-104) (human) (UniProt P01344); assay: SPR (Biacore T100): IgG captured on Protein G', ligand bound, then BP injected; competitor BP2
[4] = target: IGF-IIE (amino acids 1-104) (human) (UniProt P01344); assay: SPR (Biacore), non-germlined IgG
[5] = target: IGF-IIE (amino acids 1-104) (human) (UniProt P01344); assay: SPR (Biacore), germlined IgG
[6] = target: IGF-IIE (amino acids 1-104) (human) (UniProt P01344); assay: SPR (Flexchip), Fab, first of duplicate; unit inferred
[7] = target: IGF-IIE (amino acids 1-104) (human) (UniProt P01344); assay: competition SPR (Biacore T100), affinity in solution: Fab pre-incubated with ligand, free ligand read on immobilized huIR-A ECD; measurement #1; head prints 'KD nM'
[8] = target: IGF-IIE (amino acids 1-104) (human) (UniProt P01344); assay: SPR (Flexchip), Fab, second of duplicate; unit inferred
[9] = target: IGF-IIE (amino acids 1-104) (human) (UniProt P01344); assay: competition SPR (Biacore T100), affinity in solution: Fab pre-incubated with ligand, free ligand read on immobilized huIR-A ECD; measurement #2; head prints 'KD nM'

Chain of IGF-IIE (amino acids 1-104) (human) (P01344 25-128 limits assumed, form in doubt): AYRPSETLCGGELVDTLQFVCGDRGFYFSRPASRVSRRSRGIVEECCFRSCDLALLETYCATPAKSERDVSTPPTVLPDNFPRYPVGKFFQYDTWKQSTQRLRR

Binder	competition score (0 = does not compete significantly, 5 = competes strongly) [1] [score 0-5]	competition score (0 = does not compete significantly, 5 = competes strongly) [3] [score 0-5]	Kd [6] [nM]	Kd [7] [nM]	other results
M0064-E04 IgG (antibody, V domains shown) VH: EVQLLESGGGLVQPGGSLRLSCAASGFTFSVYDMNWVRQAPGKGLEWVSSISSSGGGTLYADSVKGRFTISRDNSKNTLYLQMNSLRAEDTAVYYCARDSDTSSYYWYYDLWGRGTLVTVSS VL: DIQMTQSPSSLSASVGDRVTITCQASHDISNYLNWYQQKPGKAPKLLIYAASRLQSGVPSRFSGGGSGTDFSLTISSLQAEDFATYYCQQSYSFPRTFGQGTNLEIK	4	4	–	–	IC50, IGF-IIE stimulated BaF3 cell proliferation (Guava ViaCount) [2]: 130 nM; Kd [4]: 0.24 nM
X0005-H01 (germlined M0064-E04 IgG) (antibody, V domains shown) VH: EVQLLESGGGLVQPGGSLRLSCAASGFTFSVYDMNWVRQAPGKGLEWVSSISSSGGGTLYADSVKGRFTISRDNSKNTLYLQMNSLRAEDTAVYYCARDSDTSSYYWYYDLWGRGTLVTVSS VL: DIQMTQSPSSLSASVGDRVTITCQASHDISNYLNWYQQKPGKAPKLLIYAASRLQSGVPSRFSGSGSGTDFTLTISSLQPEDFATYYCQQSYSFPRTFGQGTRLEIK	–	–	–	–	Kd [5]: 0.26 nM
M0063-F02 Fab (Fab, V domains shown) VH: EVQLLESGGGLVQPGGSLRLSCAASGFTFSKYEMDWVRQAPGKGLEWVSVISSSGGGTIYADSVKGRFTISRDNSKNTLYLQMNSLRAEDTAMYYCARGRTLYGGAFDIWGQGTMVTVSS VL: DIQMTQSPSSLSASVGDRVTITCRASQPINTYLNWYQQRPGKAPRILIYTSSTLQSGVPSRFSGSGSGTDFTLTISSVQPEDFATYYCQQSYSFPLTFGGGTKVEIKR	–	–	0.12	2.78	IC50, IGF-IIE stimulated BA/F3 cell proliferation (MTS) [2]: 2.04 µg/mL; Kd [8]: 0.2 nM; Kd [9]: 1.47 nM
M0063-F02 IgG (antibody, V domains shown) VH: EVQLLESGGGLVQPGGSLRLSCAASGFTFSKYEMDWVRQAPGKGLEWVSVISSSGGGTIYADSVKGRFTISRDNSKNTLYLQMNSLRAEDTAMYYCARGRTLYGGAFDIWGQGTMVTVSS VL: DIQMTQSPSSLSASVGDRVTITCRASQPINTYLNWYQQRPGKAPRILIYTSSTLQSGVPSRFSGSGSGTDFTLTISSVQPEDFATYYCQQSYSFPLTFGGGTKVEIK	1	1	–	–	IC50, IGF-IIE stimulated BaF3 cell proliferation (Guava ViaCount) [2]: 0.85 nM; IC50, IGF-IIE stimulated BaF3 cell proliferation (Guava ViaCount), second study [2]: 10 nM
M0072-C06 Fab (Fab, V domains shown) VH: EVQLLESGGGLVQPGGSLRLSCAASGFTFSAYIMTWVRQAPGKGLEWVSSISPSGGYTVYADSVKGRFTISRDNSKNTLYLQMNSLRAEDTAVYYCARDSGFGDPFDYWGQGTMVTVSS VL: DIQMTQSPSSLSASVGDRVTITCRASQSIRNYLNWYQQKPGKAPKLLIYAASKLEDGVPSRFSGSGTGTDFTLTIRSLQPEDFASYFCQQSYSSPGITFGPGTKVEIKR	–	–	0.52	3.95	IC50, IGF-IIE stimulated BA/F3 cell proliferation (MTS) [2]: 2.3 µg/mL; Kd [9]: 1.05 nM
M0072-C06 IgG (antibody, V domains shown) VH: EVQLLESGGGLVQPGGSLRLSCAASGFTFSAYIMTWVRQAPGKGLEWVSSISPSGGYTVYADSVKGRFTISRDNSKNTLYLQMNSLRAEDTAVYYCARDSGFGDPFDYWGQGTMVTVSS VL: DIQMTQSPSSLSASVGDRVTITCRASQSIRNYLNWYQQKPGKAPKLLIYAASKLEDGVPSRFSGSGTGTDFTLTIRSLQPEDFASYFCQQSYSSPGITFGPGTKVEIK	1	2	–	–	–
M0070-H08 IgG (antibody, V domains shown) VH: EVQLLESGGGLVQPGGSLRLSCAASGFTFSRYWMIWVRQAPGKGLEWVSSIRSSGETKYADSVKGRFTISRDNSKNTLYLQMNSLRAEDTAVYYCARGPLSDYYDSSGYYFDAFDIWGQGTMVTVSS VL: DIQMTQSPSSLSASAGDRVTITCRASQSISSYLNWYQQKPGKAPNLLIYTTSNLQGGVPSRFSGSGSGTDFTLTISSLQPEDFATYYCQQGYSFPLTFGGGTKVEIK	1	2	–	–	–
M0070-H08 Fab (Fab, V domains shown) VH: EVQLLESGGGLVQPGGSLRLSCAASGFTFSRYWMIWVRQAPGKGLEWVSSIRSSGETKYADSVKGRFTISRDNSKNTLYLQMNSLRAEDTAVYYCARGPLSDYYDSSGYYFDAFDIWGQGTMVTVSS VL: DIQMTQSPSSLSASAGDRVTITCRASQSISSYLNWYQQKPGKAPNLLIYTTSNLQGGVPSRFSGSGSGTDFTLTISSLQPEDFATYYCQQGYSFPLTFGGGTKVEIKR	–	–	0.36	4.83	Kd [8]: 0.39 nM
X0008-A01 (germlined M0064-F02 IgG) (antibody, V domains shown) VH: EVQLLESGGGLVQPGGSLRLSCAASGFTFSNYIMWWVRQAPGKGLEWVSVISSSGGMTRYADSVKGRFTISRDNSKNTLYLQMNSLRAEDTAVYYCARDNGDYVGEKGFDIWGQGTMVTVSS VL: DIQMTQSPSSLSASVGDRVTITCRASQSISNYLNWYQQKPGKAPKLLIYTASTLQSGVPSRFSGSGSGTDFTLTISSLQPEDFATYYCQQSYNSPWTFGQGTKVEIK	–	–	–	–	Kd [5]: < 0.023 nM
